B2: L-selectin on rat thoracic duct lymphocytes (receptor, UniProt P30836 39-372, looked up)
chain: WTYHYSERSMNWENARKFCKHNYTDLVAIQNKREIEYLEKTLPKNPTYYWIGIRKIGKTWTWVGTNKTLTKEAENWGTGEPNNKKSKEDCVEIYIKRERDSGKWNDDACHKRKAALCYTASCQPESCNRHGECVETINNNTCICDPGYYGPQCQYVIQCEPLKAPELGTMNCIHPLGDFSFQSQCAFNCSEGSELLGNAKTECGASGNWTYLEPICQVIQCMPLAAPDLGTMECSHPLANFSFTSACTFTCSEETDLIGERKTVCRSSGSWSSPSPICQKTKRSFSKIKEGDYNPLFIPVAVMVTAFSGLAFIIWLARRLKKGKKSQERMDDPY
notes: whole, on cells; also called rat L-selectin; TDL L-selectin

In assay [1] the target is PSGL-1 from HL60 cells (human) (UniProt Q14242). Nature of the assay: fixed HL60 cells treated with PL-1 (10 µg/ml), rat lymphocyte (L-selectin) rolling at 4.4 dynes/cm^2.
Assay [2] concerns the target PSGL-1 from KG1a cells (human) (UniProt Q14242). Put plainly: fixed KG1a cells treated with PL-1 (10 µg/ml), rat lymphocyte (L-selectin) rolling at 4.4 dynes/cm^2.
Assay [3] has as its target L-selectin on human lymphocytes or neutrophils (human) (UniProt P14151). Put plainly: Stamper-Woodruff assay, human lymphocytes treated with LAM1-3, on immunoprecipitated KG1a CD44.
In assay [4] the target is L-selectin on lymphocytes (human or rat not given). Nature of the assay: Stamper-Woodruff assay, lymphocytes on immunoprecipitate spotted on glass.
For assay [5] the target is unchanged. Nature of the assay: blot rolling assay, lymphocytes over blotted KG1a membrane protein, 2.3 dynes/cm^2.
Assay [6] shares this target. Nature of the assay: Stamper-Woodruff assay, equimolar amounts of KG1a CD44 and PSGL-1, 80 rpm.
Assay [7] concerns the target L-selectin on rat thoracic duct lymphocytes (rat) (UniProt P30836). Put plainly: cell-based or functional assay.
Assay [8] concerns the target L-selectin on lymphocytes (human or rat not given). Put plainly: cell-based or functional assay.
Assay [9] has as its target L-selectin on human lymphocytes or neutrophils (human) (UniProt P14151). Nature of the assay: cell-based or functional assay.
Assay [10] deals with T1, human E-selectin on CHO-E cells (human, UniProt P16581 22-610).
T1 construct: whole, on cells; also called CD62E
T1 sequence (looked up): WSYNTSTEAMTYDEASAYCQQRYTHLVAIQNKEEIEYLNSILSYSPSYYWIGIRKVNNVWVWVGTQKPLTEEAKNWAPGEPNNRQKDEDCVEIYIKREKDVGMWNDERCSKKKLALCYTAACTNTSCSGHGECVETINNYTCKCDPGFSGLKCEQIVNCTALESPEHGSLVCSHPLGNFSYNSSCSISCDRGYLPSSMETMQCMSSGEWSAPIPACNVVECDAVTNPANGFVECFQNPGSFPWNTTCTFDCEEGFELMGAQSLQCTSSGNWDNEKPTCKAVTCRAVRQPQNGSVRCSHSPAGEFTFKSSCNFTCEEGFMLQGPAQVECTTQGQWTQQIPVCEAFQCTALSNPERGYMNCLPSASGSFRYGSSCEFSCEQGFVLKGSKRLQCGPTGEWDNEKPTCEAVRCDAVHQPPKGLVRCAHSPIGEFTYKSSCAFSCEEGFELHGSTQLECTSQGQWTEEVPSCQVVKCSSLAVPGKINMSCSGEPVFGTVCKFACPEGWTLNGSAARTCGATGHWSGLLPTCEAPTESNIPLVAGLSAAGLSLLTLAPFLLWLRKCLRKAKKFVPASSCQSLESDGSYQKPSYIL
Nature of the assay: blot rolling assay, CHO-E cells over blotted HL60 membrane protein. The protocol:
The blot rolling assay was performed as previously described (Dimitroff et al., 2000). Briefly, CHO-E, CHO-P or CHO-Mock transfectants were isolated as described above, washed twice in HBSS and suspended at 10^7/ml in HBSS/10 mM HEPES/2mMCaCl_2 (H/H/Ca++)/10% glycerol. […] The blots were then placed in the parallel-plate flow chamber, and CHO transfectants (2×10^6/ml) were perfused into the chamber. After allowing the cells to come in contact with the blotting membrane, the flow rate was adjusted to exert a shear stress of 3.8 dynes/cm^2. The viscosity of 10% glycerol adhesion assay medium was considered in the calculation of shear stress values. The number of cells rolling on and between each immunostained banding region was quantified under 100× magnification within each field of view on the video monitor using molecular weight markers (Kaleidoscope Molecular Weight Markers, Bio-Rad Lab.; See Blue® from Novex, Inc.) as guides to help align and visualize the apparent molecular weights of the proteins of interest. A minimum of 3 experiments was performed and results were expressed as the mean±SD of cell rolling/field at 100× magnification. […]

Assay [11] addresses T2, CD34 immunoprecipitated from KG1a cells (human, UniProt P28906 32-385).
T2 construct: mature; also called KG1a CD34; CD34 (Molecular Control)
T2 sequence (looked up): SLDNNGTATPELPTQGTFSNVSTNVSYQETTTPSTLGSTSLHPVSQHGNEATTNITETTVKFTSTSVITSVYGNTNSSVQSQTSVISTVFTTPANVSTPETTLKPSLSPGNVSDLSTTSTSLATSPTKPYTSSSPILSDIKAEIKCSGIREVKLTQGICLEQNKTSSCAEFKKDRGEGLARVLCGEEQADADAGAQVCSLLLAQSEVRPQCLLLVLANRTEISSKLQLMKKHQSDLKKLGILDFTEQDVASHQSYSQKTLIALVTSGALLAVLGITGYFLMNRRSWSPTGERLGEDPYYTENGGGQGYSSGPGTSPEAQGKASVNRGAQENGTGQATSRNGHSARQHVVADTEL
Put plainly: Stamper-Woodruff assay, 80 rpm, rat thoracic duct lymphocytes. The procedure: (§1) Lymphocytes (10^7/ml RPMI-1640 without NaBicarbonate/5'/oFBS) were overlayed onto these fixed immunoprecipitates and incubated on an orbital shaker at 80 rpm for 30 min. at 4° C. The number of adherent lymphocytes was quantified by light microscopy using an ocular grid under 100× magnification (a minimum of 5 fields/slide, 2 slides/experiment, and 3 separate experiments). Data were presented as the mean number of bound lymphocytes±standard deviation. KG1a CD34 and L-selectin control immunoprecipitates were also tested in this manner. To verify the dependence for sialic acid, glutaraldehyde-fixed spots were treated with *Vibrio cholerae* neuraminidase (0.1U/ml RPMI-1640 without NaBicarbonate/2% FBS for 1 hr at 37° C.). In addition, to verify that cellular adhesion was dependent on L-selectin, all assays included negative controls, in which lymphocytes were treated with PMA (50 ng/ml for 30 min at 37° C.) or functional blocking antibodies (anti-rat-L-selectin moAb HRL-1 or anti-human L-selectin moAb LAM1-3;10 µg/ml), or lymphocyte suspensions contained 5 mM EDTA.
(§2) [2]The average number of bound lymphocytes from 5 fields of view at 100x mag. from duplicate slides and a minimum of three experiments. […]

The target in assay [12] is B2. Described as above. The procedure:
as §1, §2

Results on six molecules are retold here after US7875585 (dated 2011).

As to anti-PSGL-1 monoclonal antibody PL-1, the % Control Mean Lymphocyte Binding (% of untreated control) in assay [1] was 62.5; in assay [2] it was 105.

In assay [3], “anti-human L-selectin monoclonal antibody LAM1-3” returned a bound cells/field left after the antibody (bound cells/field) below 10.

“hematopoietic cell E-selectin/L-selectin ligand (HCELL), the CD44 glycoform of KG1a cells (from UniProt P16070 21-742)”: the bound cells/field (bound cells/field) in assay [4] turned out to be 362. In assay [5], this molecule showed a fold L-selectin ligand activity compared to other bands below 6 fold. In [6], the fold lymphocyte binding compared with PSGL-1 was below 10 fold. Further, in [7], the % Control Mean Lymphocyte Binding; KG1a Cells + mocarhagin (% of untreated control) turned out to be 110, the % Control Mean Lymphocyte Binding; KG1a Cells +Neur. + DMSO (% of untreated control) came out at 103, the % Control Mean Lymphocyte Binding; KG1a Cells +Neur. + Tunicamycin (15 µg/ml) (% of untreated control) came to 34.3 and the % Control Mean Lymphocyte Binding; KG1a Cells +OSGE (60 µg/ml) (% of untreated control) came out at 104. In assay [7], the % Control Mean Lymphocyte Binding; KG1a Cells +neuraminidase (Neur.) (0.1 U/ml) (% of untreated control) is 0.3. In [8], this molecule registered a L-selectin-mediated lymphocyte adherence to KG1a cells against HL60 cells at 80 rpm, Stamper-Woodruff assay of 10 fold and a frequency of rolling lymphocytes on KG1a cells against HL60 cells, parallel-plate flow chamber below 5 fold. The same molecule gave a L-selectin-mediated neutrophil rolling on KG1a cells against HL60 cells, parallel-plate flow chamber in [9] of 4 fold.

B1: PSGL-1 from HL60 cells (ligand, human, UniProt Q14242 42-412, looked up)
chain: QATEYEYLDYDFLPETEPPEMLRNSTDTTPLTGPGTPESTTVEPAARRSTGLDAGGAVTELTTELANMGNLSTDSAAMEIQTTQPAATEAQTTQPVPTEAQTTPLAATEAQTTRLTATEAQTTPLAATEAQTTPPAATEAQTTQPTGLEAQTTAPAAMEAQTTAPAAMEAQTTPPAAMEAQTTQTTAMEAQTTAPEATEAQTTQPTATEAQTTPLAAMEALSTEPSATEALSMEPTTKRGLFIPFSVSSVTHKGIPMAASNLSVNYPVGAPDHISVKQCLLAILILALVATIFFVCTVVLAVRLSRKGHMYPVRNYSPTEMVCISSLLPDGGEGPSATANGGLSKAKSPGLTPEPREDREGDDLTLHSFLP
modifications: HECA-452-reactive glycans
notes: mature; also called HL60 PSGL-1; PSGL-1/CLA
With B1, the binding result in assay [10] is given as “binds”.

As for B2, the binding result in assay [11] is “no binding”.

B3: L-selectin immunoprecipitated from KG1a cells (receptor, human, UniProt P14151 39-372, looked up)
chain: WTYHYSEKPMNWQRARRFCRDNYTDLVAIQNKAEIEYLEKTLPFSRSYYWIGIRKIGGIWTWVGTNKSLTEEAENWGDGEPNNKKNKEDCVEIYIKRNKDAGKWNDDACHKLKAALCYTASCQPWSCSGHGECVEIINNYTCNCDVGYYGPQCQFVIQCEPLEAPELGTMDCTHPLGNFSFSSQCAFSCSEGTNLTGIEETTCGPFGNWSSPEPTCQVIQCEPLSAPDLGIMNCSHPLASFSFTSACTFICSEGTELIGKKKTICESSGIWSNPSPICQKLDKSFSMIKEGDYNPLFIPVAVMVTAFSGLAFIIWLARRLKKGKKSKRSMNDPY
notes: mature; also called L-selectin (Molecular Control)
For the molecule B3, the binding result in assay [12] is on record as “no binding”.
